In PMC10351450 (Autophagy, 2023):

Target: Oligomeric recombinant human Aβ1-42 (human, UniProt P05067)
Assay: co-IP

B1: ATP6V0C subunit of V-ATPase from mouse brain (natural protein)
chain: MADIKNNPEYSSFFGVMGASSAMVFSAMGAAYGTAKSGTGIAAMSVMRPELIMKSIIPVVMAGIIAIYGLVVAVLIANSLTDGITLYRSFLQLGAGLSVGLSGLAAGFAIGIVGDAGVRGTAQQPRLFVGMILILIFAEVLGLYGLIVALILSTK
  binding result: binds
